Measured values as given in patent US20250002574A1 (SUNSHINE LAKE PHARMA, published 2025).
Where a chain is given by its changes, count along the chain named.

T1: IL-11 (UniProt P20809 22-199, limits assumed)
T1 construct: also called IL-11 protein; IL-11 antigen
T1 sequence (looked up): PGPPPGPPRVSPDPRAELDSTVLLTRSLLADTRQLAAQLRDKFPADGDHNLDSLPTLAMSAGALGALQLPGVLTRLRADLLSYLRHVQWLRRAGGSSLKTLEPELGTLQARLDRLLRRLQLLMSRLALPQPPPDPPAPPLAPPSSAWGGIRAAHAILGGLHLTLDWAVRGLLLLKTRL

B1: Original sequence (1H9) (scFv)
scFv: QVQLVQSGAEVKKPGASVKVSCKASDYTFTNYWLGWVRQAPGQGLEWMGHIYPGGGYTNYNEKFKGRVTMTRDTSTSTVYMELSSLRSEDTAVYYCARVRSGNDALDFWGQGTLVTVSSGGGGSGGGGSGGGGSEIVLTQSPATLSLSPGERATLSCRASESVDEYGISFMNWFQQKPGQAPRLLIYSASNQGSGIPARFSGSGSGTDFTLTISSLEPEDFAVYFCQQSKEVPWTFGGGTKLEIK
notes: Template scFv of the phage library, on phage; also called ScFv VH-Linker-VL of VH1+VL3
B2: 1F9 (scFv)
scFv: B1 scFv with T30H, R100S, V232L
notes: As m119: scFv on phage
B3: 1F10 (scFv)
scFv: B1 scFv with F108I, S194D, E231D
notes: As m119: scFv on phage
B4: 2E7 (scFv)
scFv: B1 scFv with G54S, R100S, V232L
notes: As m119: scFv on phage
B5: 2F1 (scFv)
scFv: B1 scFv with R100S, V232L
notes: As m119; the printed mutations are the same as those of 2E2
B6: 2E2 (scFv)
scFv: B1 scFv with R100S, V232L
notes: As m119: scFv on phage
B7: 1F7 (scFv)
scFv: B1 scFv with G35A, L155V, R183T, Q192L
notes: As m119: scFv on phage
B8: 1F12 (scFv)
scFv: B1 scFv with R100S, G193A, V232L
notes: As m119: scFv on phage
B9: 1B1 (scFv)
scFv: B1 scFv with E10V, R72S, R87S, R158H
notes: As m119: scFv on phage
B10: 1G11 (scFv)
scFv: B1 scFv with R100S, G193A, V232L
notes: As m119; the printed mutations are the same as those of 1F12
B11: 1A10 (scFv)
scFv: B1 scFv with R100S, V232Q
B12: 1E12 (scFv)
scFv: B1 scFv with R100S, F108L, A189G, Q192E, Q227N
notes: As m119: scFv on phage
B13: 2G9 (scFv)
scFv: B1 scFv with R100S, S188G, V232L
notes: As m119: scFv on phage
B14: 2F2 (scFv)
scFv: B1 scFv with R100S, F108L, G122E
notes: As m119: scFv on phage
B15: 1G9 (scFv)
scFv: B1 scFv with K13Q, G131D, Q192R, S214N
notes: As m119: scFv on phage
B16: “VH1+VL3”-scFv (scFv)
scFv: B1 scFv
B17: “VH1+VL1”-scFv (scFv)
scFv: B1 scFv with F174Y, F225Y
notes: CHO expression supernatant
B18: “VH2+VL3”-scFv (scFv)
scFv: B1 scFv with M48I, R72A, Y95F
B19: “VH2+VL2”-scFv (scFv)
scFv: B1 scFv with M48I, R72A, Y95F, F174Y
B20: “VH2+VL1”-scFv (scFv)
scFv: B1 scFv with M48I, R72A, Y95F, F174Y, F225Y
B21: “VH2+VL4”-scFv (scFv)
scFv: B1 scFv with M48I, R72A, Y95F, V223M
B22: “VH1+VL2”-scFv (scFv)
scFv: B1 scFv with F174Y
B23: “VH3+VL2”-scFv (scFv)
scFv: B1 scFv with M48I, V68A, M70L, R72A, Y95F, F174Y
B24: “VH4+VL1”-scFv (scFv)
scFv: B1 scFv with Q43H, M48I, V68A, M70L, R72A, Y95F, F174Y, F225Y
B25: “VH3+VL3”-scFv (scFv)
scFv: B1 scFv with M48I, V68A, M70L, R72A, Y95F
B26: “VH3+VL1”-scFv (scFv)
scFv: B1 scFv with M48I, V68A, M70L, R72A, Y95F, F174Y, F225Y
B27: “VH1+VL4”-scFv (scFv)
scFv: B1 scFv with V223M
B28: “VH4+VL3”-scFv (scFv)
scFv: B1 scFv with Q43H, M48I, V68A, M70L, R72A, Y95F
B29: “VH4+VL2”-scFv (scFv)
scFv: B1 scFv with Q43H, M48I, V68A, M70L, R72A, Y95F, F174Y
B30: “VH4+VL4”-scFv (scFv)
scFv: B1 scFv with Q43H, M48I, V68A, M70L, R72A, Y95F, V223M
B31: “VH3+VL4”-scFv (scFv)
scFv: B1 scFv with M48I, V68A, M70L, R72A, Y95F, V223M
B32: 3-7C9-1A6 (antibody, human IgG1, kappa, V domains shown)
VH: QVQLKQSGPGLVQPSQSLSITCTVSGFSLTNYGVHWVRQSPGKGLEWLGAIWRGGSTDYNAAFMSRLSITKDNSKSQVFFKMNSLQPDDTAIYYCAKNLYGPAAMDYWGQGTSVTVSS
VL: DIQMNQSPSSLSASLGDTITITCHANQNIYVWLSWYQQKPGNIPKLLIYEASNLHTGVPSRFSGSGSGTGFTLTISSLQPEDIATYYCQQGQSYPYTFGGGTKLEIKR
B33: 3-6A4 (hybridoma) (antibody, human IgG1, kappa, V domains shown)
VH: QIQLVQSGPELKKPGETVKISCKASGYTFTTNGINWVKQAAGKGLKWMGWINTNTGEPTNAEELKGRFAFSLETSASTAYLQINNLKNEDAAIYFCAREGAFGLDYWGQGTSVTVSS
VL: SIVMTQSPKFLLVSAGDRVIITCKASQSVSNDVVWYQQKPGQSPKLLIYYGSHRNTGVPTRFTGSGYGTDFTFTISTVQAEDLAVYFCQQDFFSPWTFGGGTKLEIKR
notes: only the variable parts apply for certain
B34: 3-5B2-2G4 (antibody, human IgG1, kappa, V domains shown)
VH: QIQLVQSGPELKKPGETVKISCKASGYTFTNYGMNWVKQAPGKGLKWMGWINTNTGEPTYAEEIKGRFAFSLETSASTAYLQINNLKNEDTATYFCSREGIYGMDSWGQGTSVTVSS
VL: B33 VL with S7T, I20T, Q37R, G51A, H53N, N55Y, T56I, T60D, F92Y, F93Y
B35: 3-9E1-3A2 (antibody, human IgG1, kappa, V domains shown)
VH: QIQLVQSGPELKKPGETVNISCRASGDTFTNYAVNWVKQAPGKGLKWMGWIDTYTGDPTYADDLKGRFAFSLETSATTAYLQINNLKNEDTATYFCAGDTWFAYWGQGTLVTVSA
VL: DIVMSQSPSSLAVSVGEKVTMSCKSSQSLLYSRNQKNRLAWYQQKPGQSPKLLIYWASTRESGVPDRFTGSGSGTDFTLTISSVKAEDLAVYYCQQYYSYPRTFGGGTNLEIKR
B36: 5-20E11-1A2 (antibody, V domains shown)
VH: QVQLQQPGAELVRPGTSVKMSCKASGYTFTSYWMHWVKQRPGQGLEWIGDIYPGSDSTNYHEKFKSKATLTVDTSSSTAYMQLSSLTSEDSAVYYCALDSSGYGFAYWGQGTLVTVSA
VL: NIVMTQTPKFLLVSAGDRVTITRKASQSVSNDVVWYQQKPGQSPKLLMYYASYRYTGVPDRFTGSGYGTDFTFTISNVQAEDLAVYFCQQDYSSPFTFGSGTKLEIK
B37: 5-20E11-5F2 (hybridoma subclone) (antibody, human IgG1, kappa, V domains shown)
VH: QVQLQQSGAELVRPGTSAKISCKASDYTFTNYWLGWLKQRPGHGLEWIGHIYPGGGYTNYNEKFKGKATLTADTSSSTAYMQLSSLTSEDSAVYFCARVRSGNDALDFWGQGTSVTVSS
VL: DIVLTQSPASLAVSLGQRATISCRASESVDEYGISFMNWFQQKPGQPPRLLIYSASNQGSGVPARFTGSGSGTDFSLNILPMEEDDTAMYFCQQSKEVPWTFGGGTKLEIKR
B38: 3-15D5-3A6 (antibody, human IgG1, kappa, V domains shown)
VH: QVTLKESGPGILQPSQTLSLTCSFSGFSLSSSGMSVGWIRQPSGKGLEWLAHIWWSDDKSYNPALKSRLTISKDTSNNQVFLKIASVVTADTATYYCAREGSLGYGLDYWGQGTTLTVSS
VL: DVLMTQTPLSLPVSLGDQASISCRSSQSIVHTDGNTYLEWYLQKPGQSPKLLIYKVSNRFSGVPDRFSGSGSGTDFTLKISRVEAEDLGVYYCFQGSHVPWTFGGGTKLEIKR

The binders below were run against T1, IL-11 (assay: phage ELISA on IL-11).

In order of falling ELISA:
1. B15  2.81
2. B14  2.65
3. B3  2.6
4. B2  2.59
5. B8  2.59
6. B6  2.58
7. B10  2.58
8. B7  2.38
9. B12  2.2
10. B4  2.19
11. B5  2.1
12. B13  2.09
13. B11  2.06
14. B9  1.46
15. B1  1.16

The binders below were run against T1, IL-11 (assay: SPR Biacore, scFv captured, IL-11 400 nM).
Protocol: The measure method included the steps of capturing the humanized single-chain antibody at a flow rate of 10 uL/min. […] Finally, the chip was regenerated with 10 mM glycine buffer.

In order of rising Kd:
1. B25  9.76 nM
2. B30  10 nM
3. B21  10.8 nM
4. B29  11.1 nM
5. B22  11.2 nM
6. B28  11.2 nM
7. B27  11.7 nM
8. B18  11.9 nM
9. B16  12.3 nM
10. B31  13.3 nM
11. B23  14.6 nM
12. B20  16.7 nM
13. B24  17.2 nM
14. B19  17.8 nM
15. B17  21.6 nM
16. B26  22.5 nM

In order of rising koff:
1. B27  0.000387 s⁻¹
2. B16  0.000436 s⁻¹
3. B22  0.000461 s⁻¹
4. B25  0.000464 s⁻¹
5. B30  0.000481 s⁻¹
6. B28  0.000516 s⁻¹
7. B21  0.000528 s⁻¹
8. B18  0.000541 s⁻¹
9. B31  0.000556 s⁻¹
10. B29  0.000614 s⁻¹
11. B23  0.00068 s⁻¹
12. B17  0.000758 s⁻¹
13. B19  0.000812 s⁻¹
14. B24  0.00084 s⁻¹
15. B20  0.00089 s⁻¹
16. B26  0.001 s⁻¹

In order of falling kon:
1. B29  55200 M⁻¹ s⁻¹
2. B20  53400 M⁻¹ s⁻¹
3. B24  48900 M⁻¹ s⁻¹
4. B21  48800 M⁻¹ s⁻¹
5. B30  47900 M⁻¹ s⁻¹
6. B25  47600 M⁻¹ s⁻¹
7. B23  46500 M⁻¹ s⁻¹
8. B28  46100 M⁻¹ s⁻¹
9. B19  45700 M⁻¹ s⁻¹
10. B18  45600 M⁻¹ s⁻¹
11. B26  44500 M⁻¹ s⁻¹
12. B31  41800 M⁻¹ s⁻¹
13. B22  41300 M⁻¹ s⁻¹
14. B16  35500 M⁻¹ s⁻¹
15. B17  35100 M⁻¹ s⁻¹
16. B27  33100 M⁻¹ s⁻¹

These binders were tested against T1, IL-11 (assay: ELISA on IL-11, monoclonal hybridoma antibody).

In order of falling OD450:
1. B38  1.69 OD450
2. B34  1.65 OD450
3. B36  1.63 OD450
4. B32  1.6 OD450
5. B37  1.6 OD450
6. B33  1.58 OD450
7. B35  1.54 OD450

These binders were tested against T1, IL-11 (assay: flow cytometry of phage clone; cells not given).

In order of falling “Flow (Mean)” value:
1. B12  6320 mean fluorescence
2. B8  4140 mean fluorescence
3. B2  3820 mean fluorescence
4. B9  3500 mean fluorescence
5. B10  2900 mean fluorescence
6. B3  2640 mean fluorescence
7. B5  2390 mean fluorescence
8. B15  2240 mean fluorescence
9. B11  2200 mean fluorescence
10. B6  2100 mean fluorescence
11. B14  2000 mean fluorescence
12. B4  1990 mean fluorescence
13. B13  1910 mean fluorescence
14. B7  1860 mean fluorescence
15. B1  450 mean fluorescence

These binders were tested against T1, IL-11 (assay: flow, IL-11 + antibody on IL-11R cells; lower = more blocking).

In order of falling “FITC Mean” value:
1. B34  19800 mean fluorescence
2. B38  10900 mean fluorescence
3. B35  9070 mean fluorescence
4. B36  3640 mean fluorescence
5. B32  3150 mean fluorescence
6. B37  3110 mean fluorescence
7. B33  3040 mean fluorescence
